Measurements from the supplement of paper PMC7125110.
± gives the standard error. Variants at the floor of the assay were thinned out.

B1: glmS ribozyme (parent)
chain: AUAAAAGCGCCAGAACUACAGAAAUGUAGUUGACGAGGAGGAGGUUUAUCGAAUUUUCGGCGGAUGCCUCCAAA

Tests used:
Details in all cases: with glucosamine-6-phosphate
glucosamine-6-phosphate [1] = variants of: B1; assay: self-cleavage kobs at 40 uM GlcN6P; higher = faster cleavage; RNA array
Procedure, shortened: (§1)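 Sequenced MiSeq chips were the platform: E. coli RNA polymerase transcribed barcoded ribozyme variants on them in situ, and a hybridised Cy3 probe tracked these at 37 °C. After glucosamine-6-phosphate (40 μM to 10 mM) in HEPES/KCl/Mg(OAc)2 buffer was flowed in, tiles were imaged over ~14 h. Signals normalised to baseline and to non-cleaving reference variants were reduced to per-tile medians and fit to one- or two-exponential decays to obtain kobs. kcat and KM were derived through weighted Michaelis–Menten fits across concentrations.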

glucosamine-6-phosphate [2] = variants of: B1; assay: self-cleavage kobs at 640 uM GlcN6P; higher = faster cleavage; RNA array
Procedure, shortened: as §1

glucosamine-6-phosphate [3] = variants of: B1; assay: self-cleavage kobs at 10000 uM GlcN6P; higher = faster cleavage; RNA array
Procedure, shortened: as §1

glucosamine-6-phosphate [4] = variants of: B1; assay: self-cleavage kobs at 160 uM GlcN6P; higher = faster cleavage; RNA array
Procedure, shortened: as §1

glucosamine-6-phosphate [5] = variants of: B1; assay: self-cleavage kobs at 2500 uM GlcN6P; higher = faster cleavage; RNA array
Procedure, shortened: as §1

Variant | self-cleavage kobs at 40 uM GlcN6P (glucosamine-6-phosphate [1]) | self-cleavage kobs at 640 uM GlcN6P (glucosamine-6-phosphate [2]) | self-cleavage kobs at 10000 uM GlcN6P (glucosamine-6-phosphate [3]) | self-cleavage kobs at 160 uM GlcN6P (glucosamine-6-phosphate [4]) | self-cleavage kobs at 2500 uM GlcN6P (glucosamine-6-phosphate [5])
C8U U69G | 0.000157 ± 3.4e-05 s⁻¹ | 0.00216 ± 0.00095 s⁻¹ | 0.000167 ± 3.1e-05 s⁻¹ |  | 
G51A C58A | < 1e-05 s⁻¹ | < 1e-05 s⁻¹ | < 1e-05 s⁻¹ |  | 
G7U G35A G40C G43C C58G | < 1e-05 s⁻¹ |  |  |  | 
A42U G44A | < 1e-05 s⁻¹ | < 1e-05 s⁻¹ |  | < 1e-05 s⁻¹ | < 1e-05 s⁻¹
U31A C34U C71U | < 1e-05 s⁻¹ |  |  |  | 
C8U C34U | < 1e-05 s⁻¹ | < 1e-05 s⁻¹ | < 1e-05 s⁻¹ |  | 
U54C U55G | 0.00056 ± 0.00017 s⁻¹ | 0.00482 ± 0.0012 s⁻¹ | 0.0366 ± 0.018 s⁻¹ | 0.000955 ± 0.00031 s⁻¹ | 0.00712 ± 0.0021 s⁻¹
G7U A48G A64U | < 1e-05 s⁻¹ |  | < 1e-05 s⁻¹ |  | 
A6U G62C | < 1e-05 s⁻¹ | < 1e-05 s⁻¹ |  |  | < 1e-05 s⁻¹
A33C U49C C50U | < 1e-05 s⁻¹ |  | < 1e-05 s⁻¹ |  | 
C10A U31G A48G C67G | < 1e-05 s⁻¹ |  | < 1e-05 s⁻¹ |  | 
U54G U69C | 0.00112 ± 0.00028 s⁻¹ | 0.000689 ± 0.00017 s⁻¹ | 0.00526 ± 0.0011 s⁻¹ | 0.000153 ± 6e-05 s⁻¹ | 0.00133 ± 0.00041 s⁻¹
G43A A64U C67U | < 1e-05 s⁻¹ | < 1e-05 s⁻¹ | < 1e-05 s⁻¹ |  | < 1e-05 s⁻¹
A12G A48U | < 1e-05 s⁻¹ |  | 2.34e-05 ± 7.6e-06 s⁻¹ | < 1e-05 s⁻¹ | 
A12G A48C | < 1e-05 s⁻¹ |  |  |  | 
A14U A15G A33U A48U C50U G60C | < 1e-05 s⁻¹ |  |  |  | 
C11U A48G C68A | < 1e-05 s⁻¹ |  |  |  | 
A6G C8U | < 1e-05 s⁻¹ |  | < 1e-05 s⁻¹ |  | < 1e-05 s⁻¹
G59C C70U | < 1e-05 s⁻¹ | < 1e-05 s⁻¹ |  |  | 
G41A C67U U69A | < 1e-05 s⁻¹ |  |  |  | 
U31G A33G | < 1e-05 s⁻¹ | < 1e-05 s⁻¹ | < 1e-05 s⁻¹ |  | 
G38U U45C | < 1e-05 s⁻¹ | < 1e-05 s⁻¹ | < 1e-05 s⁻¹ | < 1e-05 s⁻¹ | < 1e-05 s⁻¹
A12U G40A G44U | < 1e-05 s⁻¹ | < 1e-05 s⁻¹ |  |  | 
C8A C11U U46C A53U | < 1e-05 s⁻¹ |  |  |  | 
U46G U54C C71U | 8.18e-05 ± 1.8e-05 s⁻¹ |  | 0.00463 ± 0.0014 s⁻¹ |  | 0.00226 ± 0.00098 s⁻¹

Variant | self-cleavage kobs at 40 uM GlcN6P (glucosamine-6-phosphate [1]) | self-cleavage kobs at 640 uM GlcN6P (glucosamine-6-phosphate [2]) | self-cleavage kobs at 10000 uM GlcN6P (glucosamine-6-phosphate [3]) | self-cleavage kobs at 160 uM GlcN6P (glucosamine-6-phosphate [4]) | self-cleavage kobs at 2500 uM GlcN6P (glucosamine-6-phosphate [5])
A42U A48C | < 1e-05 s⁻¹ | < 1e-05 s⁻¹ |  | < 1e-05 s⁻¹ | < 1e-05 s⁻¹
C16U G60U | < 1e-05 s⁻¹ | < 1e-05 s⁻¹ |  | < 1e-05 s⁻¹ | 
A12U G13C C34U G62A U65G | < 1e-05 s⁻¹ |  |  |  | 
C8U A33C G44A C50G | < 1e-05 s⁻¹ | < 1e-05 s⁻¹ |  |  | < 1e-05 s⁻¹
C10A U30C C61A | < 1e-05 s⁻¹ |  |  |  | 
G37U G51C C71U | < 1e-05 s⁻¹ | < 1e-05 s⁻¹ | < 1e-05 s⁻¹ | < 1e-05 s⁻¹ | 
U54A C68G C70U | 8.05e-05 ± 2.2e-05 s⁻¹ |  |  |  | 
A14G G41U U45A C70U | 0.000293 ± 5.4e-05 s⁻¹ | 0.000588 ± 0.00015 s⁻¹ | 0.000993 ± 0.00019 s⁻¹ | 0.00043 ± 0.00013 s⁻¹ | 0.00191 ± 0.00054 s⁻¹
U30C G41A A42C C50G | < 1e-05 s⁻¹ |  | < 1e-05 s⁻¹ |  | 
G29C G44U | < 1e-05 s⁻¹ | < 1e-05 s⁻¹ |  | < 1e-05 s⁻¹ | 
C8U C68U C70U | < 1e-05 s⁻¹ |  | < 1e-05 s⁻¹ |  | 
G13A C61G C68A C70U | < 1e-05 s⁻¹ |  |  |  | 
G7U A14U U55C G63U C70A | < 1e-05 s⁻¹ | < 1e-05 s⁻¹ |  |  | < 1e-05 s⁻¹
A12G G60A | < 1e-05 s⁻¹ |  | < 1e-05 s⁻¹ | < 1e-05 s⁻¹ | < 1e-05 s⁻¹
G51C U69C | < 1e-05 s⁻¹ |  | < 1e-05 s⁻¹ |  | < 1e-05 s⁻¹
A14C A52C | < 1e-05 s⁻¹ | < 1e-05 s⁻¹ | < 1e-05 s⁻¹ | < 1e-05 s⁻¹ | 
G9C A39G G40U U49C | < 1e-05 s⁻¹ |  | < 1e-05 s⁻¹ |  | 
C8G A12U A33U G60C | < 1e-05 s⁻¹ |  | < 1e-05 s⁻¹ |  | 
G9C C70A | < 1e-05 s⁻¹ | < 1e-05 s⁻¹ | < 1e-05 s⁻¹ | < 1e-05 s⁻¹ | 
C16G U56A C71U | 0.000174 ± 5.5e-05 s⁻¹ |  |  |  | 
G63A U65C | < 1e-05 s⁻¹ | < 1e-05 s⁻¹ | < 1e-05 s⁻¹ |  | 
G7U G38U C71A | < 1e-05 s⁻¹ |  | < 1e-05 s⁻¹ |  | 
G7A A15G G51U C58G A64U C70A | 0.000522 ± 0.00019 s⁻¹ |  | 0.000462 ± 0.00017 s⁻¹ |  | 
G7A G44C A48U C68U | < 1e-05 s⁻¹ |  | < 1e-05 s⁻¹ |  | 
A12U A15G | 0.00156 ± 0.00021 s⁻¹ | 0.0146 ± 0.0029 s⁻¹ | 0.0602 ± 0.02 s⁻¹ | 0.00363 ± 0.00072 s⁻¹ | 0.0139 ± 0.0034 s⁻¹
